The target in experiment [1] is Sm-like protein from Sulfolobus acidocaldarius (SacSm) (Sulfolobus acidocaldarius). Kind of experiment: dynamic light scattering; particle size under native conditions, Zetasizer Nano ZSP, 25 °C, detection angle 173°.
The target of experiment [2] is hybrid chaperone protein ADGroEL–SacSm (Escherichia coli | Sulfolobus acidocaldarius). The experiment is described as above.

What is called stoichiometry N is the number of molecules, sites or subunits per partner or assembly. Consider “Sm-like protein from Sulfolobus acidocaldarius (SacSm) (natural protein)”, for which the stoichiometry N in experiment [1] is 7.
With hybrid chaperone protein ADGroEL–SacSm, the stoichiometry N in experiment [2] came to 7.

The values are drawn from publication PMC10488932.
